Measured values reported in patent US20230312646A1, “ANTIBACTERIAL PEPTIDES” (priority 2020, published 2023).
Read-outs that look alike come from different tables or passages of the source. Square brackets hold non-standard residues; d marks the D form. Cha = N[C@@H](CC1CCCCC1)C(=O)O

Assays:
[1] = molecular target: T1, Pseudomonas aeruginosa sliding clamp (Pseudomonas aeruginosa), Q9I7C4; assay: ITC, 25 C
T1 chain: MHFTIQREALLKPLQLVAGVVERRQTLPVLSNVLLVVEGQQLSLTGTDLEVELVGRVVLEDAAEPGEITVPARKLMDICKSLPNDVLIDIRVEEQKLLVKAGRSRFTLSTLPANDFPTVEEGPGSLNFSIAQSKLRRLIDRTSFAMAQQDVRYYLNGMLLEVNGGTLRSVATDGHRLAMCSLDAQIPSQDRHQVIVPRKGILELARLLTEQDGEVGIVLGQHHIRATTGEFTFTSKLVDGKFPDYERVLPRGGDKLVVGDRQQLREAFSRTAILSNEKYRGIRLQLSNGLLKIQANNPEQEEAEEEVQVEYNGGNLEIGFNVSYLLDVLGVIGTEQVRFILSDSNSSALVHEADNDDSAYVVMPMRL

[2] = molecular target: Acinetobacter baumannii sliding clamp (Acinetobacter baumannii); assay: ITC, 25 C
[3] = molecular target: T2, Escherichia coli sliding clamp (bacterial processivity factor, dnaN gene product) (Escherichia coli), P0A988; assay: ITC, 25 C
[4] = molecular target: T2, Escherichia coli sliding clamp …; assay: kinITC
[5] = molecular target: T2, Escherichia coli sliding clamp …; assay: ITC, 25 C; remark: listed apart in the source

**Q.** What does the source list for Ac-Q[Cha]DLF-OH [Ac-Gln-Cha-Asp-Leu-Phe-OH (peptide 1)]?
**A.** Kd [1]: 600 nM; Kd [2]: 655 nM; Kd [3]: 170 nM; koff [4]: 0.0074 s⁻¹; kon [4]: 40000 M⁻¹ s⁻¹; Kd [5]: 194 nM; ΔG [5]: -9.2 kcal/mol
